Numbering of substitutions follows the chain as printed. Numbers in names are those of the source.
B1: I317L (protein)
chain: MQLRNPELHLGCALALRFLALVSWDIPGARALDNGLARTPTMGWLHWERFMCNLDCQEEPDSCISEKLFMEMAELMVSEGWKDAGYEYLCIDDCWMAPQRDSEGRLQADPQRFPHGIRQLANYVHSKGLKLGIYADVGNKTCAGFPGSFGYYDIDAQTFADWGVDLLKFDGCYCDSLENLADGYKHMSLALNRTGRSIVYSCEWPLYMWPFQKPNYTEIRQYCNHWRNFADIDDSWKSIKSILDWTSFNQERIVDVAGPGGWNDPDMLVIGNFGLSWNQQVTQMALWAIMAAPLFMSNDLRHISPQAKALLQDKDVLAINQDPLGKQGYQLRQGDNFEVWERPLSGLAWAVAMINRQEIGGPRSYTIAVASLGKGVACNPACFITQLLPVKRKLGFYEWTSRLRSHINPTGTVLLQLENTMQMSLKDLL
B2: A318D (protein)
chain: B1 chain with L317I, A318D
B3: D315H (protein)
chain: B1 chain with D315H, L317I
B4: N320T (protein)
chain: B1 chain with L317I, N320T
B5: V316A (protein)
chain: B1 chain with V316A, L317I
B6: A318V (protein)
chain: B1 chain with L317I, A318V
B7: L324V (protein)
chain: B1 chain with L317I, L324V
B8: D322A (protein)
chain: B1 chain with L317I, D322A
B9: D315N (protein)
chain: B1 chain with D315N, L317I
B10: I319M (protein)
chain: B1 chain with L317I, I319M
B11: A318T (protein)
chain: B1 chain with L317I, A318T

The molecules below were run on mutant form of α-Gal A expressed in HEK-293 cells (assay: HEK assay (GLP HEK / Migalastat Amenability Assay): α-Gal A activity in lysates of transiently transfected HEK-293 cells incubated with or without 10 μM migalastat). Conditions: 10 μM migalastat versus baseline.
Type: cell-based, human
In short: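 HEK-293 cells transiently transfected with mutant α-Gal A and incubated with or without 10 μM migalastat; lysate activity given as nmol free 4-MU released per mg protein per hour. Values are mean±SEM.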

Molecule	Absolute increase (% WT)	Relative increase
B1	16.5 % WT	1.3
B2	16.9 % WT	1.4
B3	17.4 % WT	1.4
B4	21.8 % WT	2.0
B5	22.7 % WT	1.4
B6	16.5 % WT	1.4
B7	13.0 % WT	1.2
B8	15.3 % WT	3.2
B9	17.9 % WT	1.5
B10	9.4 % WT	1.2
B11	17.7 % WT	1.3

Same assay, conditions: absence of migalastat; percentage of baseline wild-type α-Gal A activity; mean ± SEM

Molecule	Baseline α-Gal A activity (% WT)
B1	54.4 ± 4.9 % WT
B2	42.5 ± 3.6 % WT
B3	35.7 ± 2.8 % WT
B4	21.6 ± 1.5 % WT
B5	48.8 ± 4.1 % WT
B6	37.9 ± 2.1 % WT
B7	57.2 ± 2.1 % WT
B8	6.8 ± 0.4 % WT
B9	34.1 ± 1.7 % WT
B10	47.4 ± 2.2 % WT
B11	45.2 ± 2.8 % WT

Same assay, conditions: lysates of HEK-293 cells transiently transfected with the mutant form, incubated 5 days in absence of migalastat; mean ± SEM

Molecule	Baseline α-Gal A activity
B1	14780 ± 1222 nmol/mg/h
B2	15357 ± 1499 nmol/mg/h
B3	9791 ± 1077 nmol/mg/h
B4	5597 ± 442 nmol/mg/h
B5	13166 ± 1029 nmol/mg/h
B6	14603 ± 1377 nmol/mg/h
B7	17027 ± 1167 nmol/mg/h
B8	1908 ± 139 nmol/mg/h
B9	8553 ± 425 nmol/mg/h
B10	12191 ± 433 nmol/mg/h
B11	16954 ± 1483 nmol/mg/h

Same assay, conditions: lysates of HEK-293 cells transiently transfected with the mutant form, incubated 5 days with 10 μM migalastat; mean ± SEM

Molecule	10 μM migalastat α-Gal A activity
B1	18770 ± 1141 nmol/mg/h
B2	20838 ± 1817 nmol/mg/h
B3	14136 ± 1573 nmol/mg/h
B4	11276 ± 658 nmol/mg/h
B5	18908 ± 1577 nmol/mg/h
B6	19658 ± 1108 nmol/mg/h
B7	20866 ± 1331 nmol/mg/h
B8	6170 ± 310 nmol/mg/h
B9	13037 ± 869 nmol/mg/h
B10	14802 ± 727 nmol/mg/h
B11	22296 ± 1232 nmol/mg/h

Same assay, conditions: with 10 μM migalastat, 5 days; percentage of baseline wild-type α-Gal A activity; mean ± SEM

Molecule	10 μM migalastat α-Gal A activity (% WT)
B1	70.9 ± 5.6 % WT
B2	59.4 ± 5.3 % WT
B3	53.2 ± 5.5 % WT
B4	43.3 ± 1.9 % WT
B5	71.5 ± 7.1 % WT
B6	54.4 ± 3.5 % WT
B7	70.2 ± 2 % WT
B8	22.2 ± 1 % WT
B9	52.1 ± 3.7 % WT
B10	56.8 ± 2.3 % WT
B11	62.9 ± 4.6 % WT

From patent US11833164B2, “Methods of treating Fabry disease in patients having a mutation in the GLA gene” (Amicus Therapeutics, Inc., priority 2019, dated 2023)
